Data as given in patent publication US20250163119A1, “COMPOUNDS FOR THE TREATMENT OF DIABETES OR OBESITY” (Eli Lilly and Company, priority 2023, published 2025).
Blank lines part the entries; values can stand above or below the binder they belong to. *1 amine or outer side, *2 acyl side, *3 side chain or, on linkers, in order; H or OH if unused. Where no end group is shown, it is not given here. Side-chain parts run from the residue outwards. [ ]: non-standard residue; d: D form. The star is where a group is joined. C20 diacid = O=C(O)CCCCCCCCCCCCCCCCCCC(=O)*; γGlu = O=C(O)[C@H](CCC(=O)[*:2])N[*:1]; εLys = N[C@@H](CCCCN[*:1])C(=O)[*:2]; NMeI = CC[C@H](C)[C@H](NC)C(=O)O; αMeL = CC(C)C[C@](C)(N)C(=O)O; AEEA = NCCOCCOCC(=O)O; Aib = CC(C)(N)C(=O)O

Legend:
Experiment in all cases: cell-based or functional assay
[1] = target: T1, human corticotropin-releasing hormone receptor 1 (CRHR1) (human, UniProt P34998 24-415)
T1 sequence (looked up): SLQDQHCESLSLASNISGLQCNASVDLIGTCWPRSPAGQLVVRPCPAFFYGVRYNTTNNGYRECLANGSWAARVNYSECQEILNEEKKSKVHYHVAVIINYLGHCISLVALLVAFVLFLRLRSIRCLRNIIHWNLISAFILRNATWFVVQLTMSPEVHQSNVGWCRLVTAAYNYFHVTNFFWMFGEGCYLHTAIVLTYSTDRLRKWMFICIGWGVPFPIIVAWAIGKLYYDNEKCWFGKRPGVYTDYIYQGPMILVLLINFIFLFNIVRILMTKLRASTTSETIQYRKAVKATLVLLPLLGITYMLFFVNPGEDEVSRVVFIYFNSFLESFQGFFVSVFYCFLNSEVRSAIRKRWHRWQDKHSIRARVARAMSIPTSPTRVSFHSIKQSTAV

[2] = target: rat CRHR2 (endogenous on A7r5 cells) (rat, UniProt P47866 20-411)
Sequence of rat CRHR2 (endogenous on A7r5 cells) (P47866 20-411): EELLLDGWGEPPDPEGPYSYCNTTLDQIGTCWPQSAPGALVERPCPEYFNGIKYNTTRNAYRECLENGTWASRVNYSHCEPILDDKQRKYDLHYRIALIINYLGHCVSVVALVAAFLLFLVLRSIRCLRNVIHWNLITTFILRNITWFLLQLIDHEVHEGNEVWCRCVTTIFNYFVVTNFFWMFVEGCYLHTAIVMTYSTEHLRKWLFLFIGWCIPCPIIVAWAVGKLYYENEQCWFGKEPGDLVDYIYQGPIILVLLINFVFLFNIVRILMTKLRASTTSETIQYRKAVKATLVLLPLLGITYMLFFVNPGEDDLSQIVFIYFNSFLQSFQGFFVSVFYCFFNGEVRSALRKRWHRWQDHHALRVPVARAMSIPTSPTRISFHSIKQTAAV

[3] = target: T1, human corticotropin-releasing hormone …; remark: listed apart in the source

B2: Human urocortin-2 (UCN2) (ligand)
peptide: IVLSLDVPIGLLQILLEQARARAAREQATTNARILARV-NH2
- hCRHR1 cAMP EC50 [1]: > 10 µM
- Y79 cAMP EC50 [3]: > 10 µM

B3: Reference compound SEQ ID NO:54 (peptide)
peptide: [NMeI]VLSLDVPIGLLQILLEQEKQEKEKQQAKTNAQILAQV-NH2
modifications: not fully specified (residue 29)
- hCRHR1 cAMP EC50 [1]: > 10 µM
- A7r5 cAMP EC50 [2]: 0.000471 µM
- Y79 cAMP EC50 [3]: 6 µM

B5: polypeptide comprising SEQ ID NO:1 (peptide)
peptide: Ac-GSPSIVTS[αMeL]DVPT[Aib][αMeL]LQKILEQERAEKARQQAK([γGlu-AEEA-εLys-C20 diacid])EAAEILAQV-NH2
- hCRHR1 cAMP EC50 [1]: > 10 µM
- A7r5 cAMP EC50 [2]: 0.000157 µM
- Y79 cAMP EC50 [3]: 1.4 µM

Further lines, results first:

- hCRHR1 cAMP EC50 [1]: > 10 µM
- A7r5 cAMP EC50 [2]: 0.000123 µM
- Y79 cAMP EC50 [3]: 1 µM
B1: polypeptide comprising SEQ ID NO:29 (peptide)
peptide: Ac-IVTS[αMeL]D[dV]PTG[αMeL]LQIKLEQERAEKARQQAKENTEILAQV-NH2
modifications: not fully specified (residue 29)

- hCRHR1 cAMP EC50 [1]: > 10 µM
- A7r5 cAMP EC50 [2]: 0.000544 µM
- Y79 cAMP EC50 [3]: 2.1 µM
B4: polypeptide comprising SEQ ID NO:2 (peptide)
peptide: Ac-GSPSIVTS[αMeL]DVPT[Aib][αMeL]LQKLLEQERAEKARQQAK([γGlu-AEEA-εLys-C20 diacid])EAAEILAQV-NH2
